Target: the molecule itself
Assay: cross-linking; BS3 cross-linker added to 19.4 uM MARCH5 in 50 mM Hepes pH 7.7, 100 mM NaCl, 5% glycerol, 0.1 mM TCEP, 0.001% LMNG; without lipid (control) and with cardiolipin at 1:10 molar ratio of protein to lipid; samples at 0, 15, 30 and 60 min; SDS-PAGE

B1: MARCH5 (enzyme, human, UniProt Q9NX47 1-278, looked up)
chain: MPDQALQQMLDRSCWVCFATDEDDRTAEWVRPCRCRGSTKWVHQACLQRWVDEKQRGNSTARVACPQCNAEYLIVFPKLGPVVYVLDLADRLISKACPFAAAGIMVGSIYWTAVTYGAVTVMQVVGHKEGLDVMERADPLFLLIGLPTIPVMLILGKMIRWEDYVLRLWRKYSNKLQILNSIFPGIGCPVPRIPAEANPLADHVSATRILCGALVFPTIATIVGKLMFSSVNSNLQRTILGGIAFVAIKGAFKVYFKQQQYLRQAHRKILNYPEQEEA
notes: human MARCH5, cDNA codon-optimised for yeast (GenScript); Integral membrane protein, kept in the detergent LMNG; By the printed primers the TEV site is ENLYFQ/SQF, so ENLYFQ probably stays at the C-terminus after cleavage (surmised); also called M5; source: S. cerevisiae PAP1500, purified (DDM solubilisation, Ni resin with exchange to LMNG, TEV cleavage, reverse IMAC); not shown: yEGFP, …
- binding result: binds

Source: paper PMC9034062, “Phospholipids alter activity and stability of mitochondrial membrane-bound ubiquitin ligase MARCH5” (Life Science Alliance, 2022)
